Source: the RNAGym collection of RNA variant scans (doi:10.1073/pnas.2313332121)
This sample holds only a part of the variants without activity.

B1: TPR 5TU (parent)
chain: GGAUCUUCUCGAUCUAACAAAAAAGACAAAUCUGCCACAAAGCUUGAGAGCAUCUUCGGAUGCAGAGGCGGCAGCCUUCGGUGGCGCGAUAGCGCCAACGUUCUCAACUAUGACACGCAAAACGCGUGCUCCGUUGAAUGGAGUUUAUCAUG

Variants of: B1
Assay: polymerase ribozyme fitness, log enrichment relative to wild type (log ratio); higher = more active; in vitro selection for triplet polymerase activity
Outline: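 For each subunit of a heterodimeric triplet polymerase ribozyme, a mutant library was built by PCR and transcribed, then taken through a single in vitro selection round in triplicate. Selection involved annealing to a biotinylated primer, the partner subunit and triplets, incubation frozen at −7 °C, gel excision of extended constructs, capture on streptavidin beads and RT-PCR. Genotypes were retained after Illumina sequencing of inputs and outputs only with ≥10 input reads and ≥1 read in each output. Fitness is defined as the logarithm of a genotype's enrichment relative to wild-type enrichment, using inverse-variance-weighted averages across replicates, with the logarithm taken to base 2.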

Variant	polymerase ribozyme fitness (log ratio)
A89G U134C	-0.372
G92C U148C	-2.56
G92C U148G	-3.89
A91U A98G U102G C105U	≤ -4.2
G88A A147C	-4.01
G92A C116U C125U U134C	≤ -4.2
G92U C103U G136U	-3.43
C93A A106C	-2.63
A89G A110U U151A	-3.58
G94C C105G C116A	-2.89
A91U A106G	-4.01
G88A C93A C123U G126U G133U G140U	≤ -4.2
C87U C96U	-1
C87U C96A	-1.2
G94C A97U G136U	-3.38
A91G C108U C116G G152A	-3.48
G88C G126C	≤ -4.2
C87U G141A	-0.85
C87U G141C	-1.72
G92C A138G G140A	≤ -4.2
G94A C95G G133A U134G A137U	-4.11
C87U C118U	-0.642
C87A A89U	≤ -4.2
U90A U130A	≤ -4.2

Variant	polymerase ribozyme fitness (log ratio)
G86U G92C A98G A150U	-2.26
A89U A97U U101A A107C A121C G140U U148G	≤ -4.2
C93U A137G	-3.18
G94A G117C A137G	-3.09
G94C C96U G136A G140A	≤ -4.2
C93A A107G	≤ -4.2
C93A C99G	-3.88
C93U C125U	-1.43
G94U A98U C99G A147G	-3.16
U90C C96U	-3.69
G94A A115U	-1.76
G92U A147C	-0.377
A91C A113G	-4.15
C87U A89U	-1.2
G92C G141C	-0.623
G86C A89U	-2.94
G88C G117C A138U G143C	≤ -4.2
C87G C114G A137G	≤ -4.2
C93U A121C G140C	≤ -4.2
G92A C96A C103G C105U A107G A119G C125U C149A	≤ -4.2
C93A C125A	-1.68
G88U G126A	-2.98
C93G A122U	-2.98
A89U A150C	-3.66

Variant	polymerase ribozyme fitness (log ratio)
G92U A115C	-2.23
A89G G92C A97C C114U	-3.82
A89C G143A	-0.0918
C87A U101C	-4
G94A C131U	0.309
G86U A115G	-2.39
C93U A98G C103A	-2.73
G94A U101G U148A	-4.03
C93U G143U	-3.38
U90A A107G	≤ -4.2
C93U C116U G141A	-0.0845
G86C G126U C131A	≤ -4.2
A89G C93A	-3.94
C93U A119G C123U U135G	-4.18
C87G C99U C116G	-3.37
C87U U102C A147C	-2.24
C87U U127A	-3.2
G94A C149U	-1.24
C87U C93U	-2.9
A89G A97G A113U C118A A120C G141C	≤ -4.2
G86U G124A U148A	-3.78
C93G C132G	≤ -4.2
G92A C105U G141C	-3.39
A91U U104A G141A U148A	≤ -4.2

Variant	polymerase ribozyme fitness (log ratio)
C93G A98C G143C	-4.05
G94C	-0.474
G94A	-0.622
G94U	1.12
G86U C99G	-3.67
C87U G136C	-3.65
C87U A122U	-0.5
C93G A142G	-3.81
G94A A120C	-0.523
A89C G124A	-1.59
G94A U101C G136C A137G U151A	≤ -4.2
A89U U90C G94U C114U G117U G133U	≤ -4.2
G92A G124A	-2.65
C93A C132G A138C G140U G141C	≤ -4.2
G86C G117A	-1.84
G94A A106C G136A	-0.404
A91U C96U C103A U109C	≤ -4.2
G92A A138C U148C	≤ -4.2
C93G C125G A150U	-4.06
C93U A122U	-0.696
G94C U127C	-2.45
G94C G128U	-3.18
G94C U151A	-3.85
C87U C103G C116U	-1.35

Variant	polymerase ribozyme fitness (log ratio)
C87U C116G G152U	-3.11
C87A A97G A142C	≤ -4.2
G92C U101G C131A	-3.96
U90C U148G	≤ -4.2
A89U C99G A142U	-2.38
C87A U127G	≤ -4.2
C93U C99U C114G	-3.73
G88U A97U U102G G117U U139G	≤ -4.2
G92C U135C	-2.88
G92C U135G	-3.12
C87U A89C U139G	-2.56
A91U C93A A122U G143C	≤ -4.2
C87U C131U	1.46
A91C C114U U139C	≤ -4.2
C93U C118A U144G	-1.06
C93A A150C	-3.74
G88U A121C	≤ -4.2
C93U G133U	-3.7
A91U A120U	≤ -4.2
A91G C105U C131A	-3.83
C93G G141U	-2.01
C93A A137U	≤ -4.2
C87U C116A G117C C118G	-1.82
G92C A98U G143A	-1.77

Variant	polymerase ribozyme fitness (log ratio)
C93A U104C	-3.27
C93A G143A	-2.78
G86A U148C	-1.5
G94A U127G U146G	-3.33
U90A C95U	≤ -4.2
G92A A98G	-3
C87A G117C U146C	≤ -4.2
G94C A106C C116U	-3.12
G92A C125A U134G	-3.58
G94A A113U A120U	-1.56
A89U C95G	-1.9
C87G A97U G117C	≤ -4.2
C93U U151A	≤ -4.2
G94A G136C	-3.98
C87G U90C	-4.07
C87A A119U A147C	-4.05
G88U C95G	-3.65
G94U A147G	-1.51
G86U C118U C125U	-4.01
A91U U145G	≤ -4.2
A89G C95A G136U	-3.75
C93U C95G A113G A137U A138U	≤ -4.2
G94C A137C C149U	-3.76
G86U C93U	-2.59

Variant	polymerase ribozyme fitness (log ratio)
C87G G141U	-3.61
A89U A107U G133A A142G	≤ -4.2
C93U A119U G141A	-0.528
A91G G133A G141U G143U	≤ -4.2
G88A G92A C132G U148A	≤ -4.2
G94C A106G	-1.31
G88U G124A G128U U135C	≤ -4.2
A91U A106C C125A	≤ -4.2
C93U G128U	-3.6
C93U G128C	-3.31
G92C C99A A138C	≤ -4.2
C87A A107G A115U U135C A142C	≤ -4.2
C93A C95A U104A G141C	≤ -4.2
C93A U148G	≤ -4.2
C93A U148C	-3.62
C93U C114U	-2.54
C93A C105A	≤ -4.2
C87U U90C	-3.33
A89C G117U	-0.705
G86U C118U A119G	-4.19
G92C G94A	-2.95
C93G G128U U146C	≤ -4.2
G92A A106G	-2.36
